Consider two molecules from paper PMC8168904, “The Trypanosoma brucei subpellicular microtubule array is organized into functionally discrete subdomains defined by microtubule associated proteins” (PLoS Pathogens, 2021).

For experiment [1], the target named is Taxol-stabilized bovine microtubules labeled with Cy5 (bovine) (UniProt Q6B856). The experiment is described as follows: not stated; (the row names no known assay).
The target in experiment [2] is T1, mNeonGreen-PAVE1 (Posterior And Ventral Edge protein 1), tagged at both endogenous alleles (T. brucei (endogenous locus, 427 strain), UniProt Q581X9 1-421).
T1 construct: PAVE1, Trypanosoma brucei, TriTrypDB Tb927.8.2030; expressed from the endogenous locus with an N-terminal tag; also called mNG-PAVE1; dET-mNeonGreen-PAVE1; source: endogenously tagged at both alleles, T. brucei 427 procyclic cells, in sonicated and clarified lysate; not shown: mNeonGreen, N-terminal, kept
T1 sequence (looked up): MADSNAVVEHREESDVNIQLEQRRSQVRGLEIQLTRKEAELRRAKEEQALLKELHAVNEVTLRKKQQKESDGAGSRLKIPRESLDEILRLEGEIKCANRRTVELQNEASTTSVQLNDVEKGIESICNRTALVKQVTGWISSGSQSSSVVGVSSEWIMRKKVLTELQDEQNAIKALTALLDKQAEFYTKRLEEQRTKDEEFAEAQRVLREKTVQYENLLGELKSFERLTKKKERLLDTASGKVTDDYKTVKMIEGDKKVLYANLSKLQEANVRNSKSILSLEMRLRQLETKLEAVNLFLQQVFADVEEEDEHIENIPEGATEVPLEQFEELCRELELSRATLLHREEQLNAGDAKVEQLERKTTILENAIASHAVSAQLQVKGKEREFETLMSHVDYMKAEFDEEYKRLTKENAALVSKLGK
The experiment is described as follows: affinity purification with mass spectrometry; mNeonGreen-PAVE1 captured from sonicated, clarified T. brucei lysate on magnetic mNeonGreen-Trap nanobody beads, 1 hr 4°C, 6 washes; on-bead tryptic digest and LC-MS/MS, and silver-stained SDS-PAGE of the eluate; WT 427 cells as control. To be noted: partners not purified.

By stoichiometry N is commonly meant the number of molecules, sites or subunits per partner or assembly.

With “PAVE complex (mNeonGreen-PAVE1 with Strep-PAVE2)”, in experiment [1], the time that pre-seeded patches remained after wash-out was over 20 min.

B1: PAVE2 (Tb927.9.11540), endogenous (natural protein, T. brucei (endogenous in 427 cells), UniProt Q38DN4 1-438, looked up)
chain: MADVSADSDAQVELERLNDVIDKYTCQVEHIDNLLQELEEENNSDSVSRQIAEYQSALESHPENIPAEDALEVITRLENTLKIVQRRNHLLEKENGTQNRLLEERSNVLLNATKTFDHIVDVTGWHDKFLFDAEDLRSKVADIREMSNIEAVVQKELRVAQGIIKKKEAALRQLEELVEQGKEQEAVLNNVYNDIRVKERDCSEVEMQLVRLRKSVAKTDEALAVFDLHNQNASLAYMESDRDYLRDSVAEMKSTTRRQDNVIKAQLTRQQQLQTRLDVIMKSLREMKLDKKYERNIPKSALVPSASREEPEDVSKILPESECIPVPTYRLLHKNNEMLRVIVMRKNMLVLEKNAVIEALEAGLAKYGSALITTYKEQQDLRQNKDMELIELMDDLQQQHSNYLEKLEELRLQNAALKKKMYRSTRQHAPLKGTRPMR
notes: PAVE2, Trypanosoma brucei, TriTrypDB Tb927.9.11540, predicted MW 51 kDa; also called uncharacterized protein Tb927.9.11540; source: endogenous, T. brucei 427 lysate (mNeonGreen-PAVE1 cells)
For the molecule B1, the “stoichiometry N” value in experiment [2] was about 1.
